Source: patent publication US20240016923A1

Tests used:
Experiment in all cases: dose-dependent ELISA, antigen captured by GNA lectin
[1] = target: secreted E1E2 with c-Fos/c-Jun leucine zipper scaffold (sE1E2.LZ) (Hepatitis C virus H77; human)
[2] = target: membrane-bound E1E2 (mbE1E2) (Hepatitis C virus, isolate H77C (genotype 1a)) (UniProt P27958)
[3] = target: secreted E2 ectodomain (sE2), HCV E2 residues 384-661 (Hepatitis C virus, isolate H77C) (UniProt P27958)

With AR4A (antibody) the Kd [1] was 16 nM, the fold lower affinity relative to mbE1E2 [1] was 8 fold and the Kd [2] was 2.3 nM.
HC84.24 (antibody) showed a Kd [3] of 0.7 nM.
HC-11 (antibody) was tested, and the Kd [1] was 3.2 nM, the Kd [3] was 11 nM and the Kd [2] was 1.8 nM.
CBH-7 (antibody) gave a Kd [1] of 1.7 nM, a Kd [3] of 0.3 nM and a Kd [2] of 1 nM.
AR5A (antibody) gave a Kd [1] of 1.7 nM and a Kd [2] of 1.5 nM.
HC33.1 (antibody) showed a Kd [1] of 0.9 nM, a Kd [3] of 1.9 nM and a Kd [2] of 3.8 nM.
Substance “HC-1 AM (affinity-matured HC-1 antibody)” has a Kd [1] of 2.9 nM, a Kd [3] of 3.6 nM and a Kd [2] of 1.5 nM.
For CBH-4G (antibody), the Kd [1] was 18 nM, the Kd [3] was 0.5 nM and the Kd [2] was 7.8 nM.
Work on HCV1 (antibody) yielded a Kd [1] of 3.5 nM, a Kd [3] of 6.2 nM and a Kd [2] of 9.8 nM.
With CBH-4D (antibody) the Kd [1] was 26 nM, the Kd [3] was 1 nM and the Kd [2] was 28 nM.
